Residue numbers refer to the chain shown, from its start. Like-named read-outs stand apart in the source and are kept apart here. One block for each binder: values may come before it.
Assays:
mouse plasma kallikrein [1] = target: T1, mouse plasma kallikrein (mouse, UniProt P26262 20-638, limits assumed); test: apparent inhibition constant (Ki,app) from enzyme inhibition of rodent pKal
T1 construct: also called mouse pKal; rodent pKal
T1 sequence (P26262 20-638 limits assumed): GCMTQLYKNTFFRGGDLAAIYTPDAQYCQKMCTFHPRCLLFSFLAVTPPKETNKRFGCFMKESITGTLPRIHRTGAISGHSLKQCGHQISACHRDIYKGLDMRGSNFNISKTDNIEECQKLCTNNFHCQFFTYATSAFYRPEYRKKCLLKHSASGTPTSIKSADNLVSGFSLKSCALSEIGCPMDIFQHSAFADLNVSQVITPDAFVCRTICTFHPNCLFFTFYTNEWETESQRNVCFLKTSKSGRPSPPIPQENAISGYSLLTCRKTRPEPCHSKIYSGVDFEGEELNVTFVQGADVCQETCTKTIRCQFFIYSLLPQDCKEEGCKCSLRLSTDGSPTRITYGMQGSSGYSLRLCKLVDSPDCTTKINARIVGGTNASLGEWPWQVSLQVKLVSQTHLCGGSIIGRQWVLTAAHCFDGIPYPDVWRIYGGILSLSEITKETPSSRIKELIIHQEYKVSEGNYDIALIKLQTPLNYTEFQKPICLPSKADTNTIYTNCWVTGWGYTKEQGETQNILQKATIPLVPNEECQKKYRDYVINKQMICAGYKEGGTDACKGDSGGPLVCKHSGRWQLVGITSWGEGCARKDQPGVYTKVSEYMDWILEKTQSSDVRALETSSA

rat plasma kallikrein [2] = target: T2, rat plasma kallikrein (rat, UniProt P14272 20-638, limits assumed); test: as above
T2 construct: also called rat pKal; rodent pKal
T2 sequence (P14272 20-638 limits assumed): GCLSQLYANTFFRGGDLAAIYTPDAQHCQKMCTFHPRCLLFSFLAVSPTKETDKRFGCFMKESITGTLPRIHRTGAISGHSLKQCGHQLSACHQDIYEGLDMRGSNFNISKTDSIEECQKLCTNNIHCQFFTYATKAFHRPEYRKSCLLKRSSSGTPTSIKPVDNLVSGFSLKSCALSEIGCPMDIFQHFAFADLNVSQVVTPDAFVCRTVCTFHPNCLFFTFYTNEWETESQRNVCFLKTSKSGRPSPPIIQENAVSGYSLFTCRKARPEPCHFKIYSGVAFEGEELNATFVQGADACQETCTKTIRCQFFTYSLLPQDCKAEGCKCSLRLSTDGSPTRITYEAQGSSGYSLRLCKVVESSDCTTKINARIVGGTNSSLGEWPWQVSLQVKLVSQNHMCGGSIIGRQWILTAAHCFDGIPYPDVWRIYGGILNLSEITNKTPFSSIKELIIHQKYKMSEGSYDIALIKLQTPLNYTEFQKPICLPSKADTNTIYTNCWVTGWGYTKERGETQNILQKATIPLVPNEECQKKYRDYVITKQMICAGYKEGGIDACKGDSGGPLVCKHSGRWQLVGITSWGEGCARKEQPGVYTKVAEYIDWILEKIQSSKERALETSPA

human plasma kallikrein [3] = target: T3, human plasma kallikrein (human, UniProt P03952 20-390; P03952 391-638); test: apparent inhibition constant (Ki,app) from enzyme inhibition of human pKal; IgG
T3 construct: two disulfide-linked chains; also called pKal; human pKal
T3 sequence (P03952 20-390, chain 1 of 2): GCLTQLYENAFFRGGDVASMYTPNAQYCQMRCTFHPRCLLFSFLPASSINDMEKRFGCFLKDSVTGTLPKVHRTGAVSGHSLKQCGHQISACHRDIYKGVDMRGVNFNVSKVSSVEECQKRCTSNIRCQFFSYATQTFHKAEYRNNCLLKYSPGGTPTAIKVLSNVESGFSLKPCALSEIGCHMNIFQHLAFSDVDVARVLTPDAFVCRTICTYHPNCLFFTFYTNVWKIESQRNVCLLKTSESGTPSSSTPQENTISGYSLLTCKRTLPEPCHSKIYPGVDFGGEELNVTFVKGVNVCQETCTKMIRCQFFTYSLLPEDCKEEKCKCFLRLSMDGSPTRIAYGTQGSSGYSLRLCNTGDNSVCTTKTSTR
T3 sequence (P03952 391-638, chain 2 of 2): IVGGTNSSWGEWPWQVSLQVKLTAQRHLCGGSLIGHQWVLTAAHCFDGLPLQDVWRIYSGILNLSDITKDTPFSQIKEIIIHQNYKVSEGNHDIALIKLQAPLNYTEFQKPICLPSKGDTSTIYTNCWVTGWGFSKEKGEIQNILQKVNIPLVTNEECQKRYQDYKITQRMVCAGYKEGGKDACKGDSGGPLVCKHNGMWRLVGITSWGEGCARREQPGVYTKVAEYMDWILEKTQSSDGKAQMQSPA

human plasma kallikrein [4] = target: T3, human plasma kallikrein; test: apparent inhibition constant (Ki,app) from enzyme inhibition of human pKal; Fab
[5] = target: T4, human plasma kallikrein (active form) (human, UniProt P03952 20-390; P03952 391-638); test: apparent Ki (Ki,app), inhibition of human pKal enzyme activity
T4 construct: also called pKal; human pKal
T4 sequence (P03952 20-390, chain 1 of 2): as the sequence (P03952 20-390, chain 1 of 2) above
T4 sequence (P03952 391-638, chain 2 of 2): as the sequence (P03952 391-638, chain 2 of 2) above

mouse plasma kallikrein [6] = target: T5, mouse plasma kallikrein (mouse, UniProt P26262 20-638, limits assumed); test: apparent Ki (Ki,app), inhibition of rodent pKal enzyme activity
T5 construct: also called mouse pKal
T5 sequence (P26262 20-638 limits assumed): as the sequence (P26262 20-638 limits assumed) above

human plasma kallikrein [7] = target: T6, human plasma kallikrein (human, UniProt P03952 20-390; P03952 391-638); test: Ki,app of IgG, enzyme inhibition of human pKal
T6 construct: two disulfide linked chains; also called pKal; human pKal
T6 sequence (P03952 20-390, chain 1 of 2): as the sequence (P03952 20-390, chain 1 of 2) above
T6 sequence (P03952 391-638, chain 2 of 2): as the sequence (P03952 391-638, chain 2 of 2) above

human plasma kallikrein [8] = target: T6, human plasma kallikrein; test: Ki,app as an IgG, steady state enzyme kinetics, inhibition of human pKal
human plasma kallikrein [9] = target: T6, human plasma kallikrein; test: Ki,app, enzyme inhibition of pKal, Fab
human plasma kallikrein [10] = target: T6, human plasma kallikrein; test: Ki,app, enzyme inhibition of pKal, IgG
[11] = target: T4, human plasma kallikrein (active form); test: apparent Ki (Ki,app), inhibition of human pKal enzyme activity; remark: listed apart in the source
Description: (§1) Apparent Inhibition constants (K_{i,app} values) were measured by pre-incubating enzyme and inhibitor solutions prior to initiating the reactions with substrate. Enzyme and inhibitor were pre-incubated for 2 hours at 30° C. in a 96-well plate by adding 10 μL of a 10× enzyme solution and 10 μL of 10× inhibitor solutions to 70 μL of reaction buffer. Reactions were initiated by the addition of 10 μL of a 10× concentrated stock of substrate, and were monitored at 30° C. in a fluorescence plate reader with the excitation and emission wavelengths set at 360 nm/460 nm, respectively. Kinetic data were acquired by the increase in fluorescence, and initial rates for each condition were plotted against the total inhibitor concentration. The data was fit to the following equation for tight binding inhibitors: […]

mouse plasma kallikrein [12] = target: T5, mouse plasma kallikrein; test: apparent Ki (Ki,app), inhibition of mouse pKal enzyme activity
Description: as §1

rat plasma kallikrein [13] = target: T7, rat plasma kallikrein (rat, UniProt P14272 20-638, limits assumed); test: apparent Ki (Ki,app), inhibition of rodent pKal enzyme activity
T7 construct: also called rat pKal
T7 sequence (P14272 20-638 limits assumed): as the sequence (P14272 20-638 limits assumed) above

[14] = target: T8, pKal catalytic domain Mutant 2 (human, UniProt P03952 391-638); test: enzyme inhibition, Ki,app on mutant and wild type pKal catalytic domain
T8 construct: Expressed in Pichia pastoris, purified by IMAC; not shown: His tag fusion
T8 sequence (P03952 other isoform, or with tags, fused parts or gaps mutant limits assumed): as the sequence (P03952 391-638, chain 2 of 2) above, with R161A, Q163A, Y165A, T168A, R170A counted along it

B3: X67-D03 (antibody, V domains shown)
VH: EVQLLESGGGLVQPGGSLRLSCAASGFTFSAYSMIWVRQAPGKGLEWVSYIRPSGGRTTYADSVKGRFTISRDNSKNTLYLQMNSLRAEDTAVYYCARGGLLLWNRELKSNYFDYWGQGTLVTVSS
VL: DIQMTQSPSSLSAFVGDRVTITCRASQPIDNYLNWYHQKPGKAPKLLIYAASRLQSGVPSRLSGSGFGTDFTLTISSLQPEDFGNYYCQQSYTVPYTFGGGTKVEIR
notes: Tested as IgG; Single point mutant (F to N in HC CDR3) of M142-H08; also called X67-D03 (IgG); 559A-X67-D03
Ki [5]: 0.1 nM | Ki (mouse plasma kallikrein [6]): 0.7 nM

B4: X67-D03 (IgG) (antibody, V domains shown)
VH: B3 VH
VL: B3 VL
notes: printed HC runs into CH1; also called 559A-X67-D03
Ki (human plasma kallikrein [7]): 0.1 nM | Ki (human plasma kallikrein [8]): 0.1 nM

B5: X67-G04 (IgG) (antibody, V domains shown)
VH: B3 VH with N105A
VL: B3 VL
notes: printed HC runs into CH1
Ki (human plasma kallikrein [7]): 0.35 nM | Ki (human plasma kallikrein [8]): 0.35 nM

B7: X63-G06 (Fab, V domains shown)
VH: EVQLLESGGGLVQPGGSLRLSCAASGFTFSHYLMTWVRQAPGKGLEWVSYISPSGGHTIYADSVKGRFTISRDNSKNTLYLQMNSLRAEDTAVYYCARVARGIAARSRTSYFDYWGQGTLVTVSS
VL: DIQMTQSPGTLSLSPGERATLSCRTSQFVNSNYLAWYQQTPGQAPRLLIYGASSRATGIPDRFSGTGYGTDFTLTISRLEPEDYGTYYCQQSSRTPWTFGQGTRVEIK
notes: Non-germlined Fab discovered using ROLIC, same HC but different LC as M160-G12; also called X63-G06 (Fab)
Ki (human plasma kallikrein [9]): 0.4 nM

B8: X81-B01 (antibody, V domains shown)
VH: B7 VH
VL: B7 VL with D1E, Q3V, M4L, T40K, T66S, Y68S, Y84F, G85A, T86V, R104K
notes: also called X81-B01 (IgG)
Ki (human plasma kallikrein [10]): 0.2 nM

B10: M6-D09 (antibody, V domains shown)
VH: EVQLLESGGGLVQPGGSLRLSCAASGFTFSFYYMVWVRQAPGKGLEWVSVIYPSGGITVYADSVKGRFTISRDNSKNTLYLQMNSLRAEDTAVYYCARDKWAVMPPYYYYAMDVWGQGTTVTVSS
VL: DIQMTQSPSSLSASVGDRVTITCRASQSIRNYLNWYQQKPGKAPNLLIYAASTLQSGVPARFSGSGSGTDFTLTISSLQPEDFATYYCQQLSGYPHTFGQGTKLEIK
notes: Group 3 antibody; also called M06-D09; 559A-M06-D09
fold increase of Ki,app against the wild type catalytic domain [14]: ~5 fold

The next lines start with the values.

Ki (mouse plasma kallikrein [1]): 2 nM | Ki (rat plasma kallikrein [2]): 2 nM | Ki (human plasma kallikrein [3]): 2 nM
B1: M162-A04 (IgG) (antibody, V domains shown)
VH: EVQLLESGGGLVQPGGSLRLSCAASGFTFSHYIMMWVRQAPGKGLEWVSGIYSSGGITVYADSVKGRFTISRDNSKNTLYLQMNSLRAEDTAVYYCAYRRTGIPRRDAFDIWGQGTMVTVSS
VL: DIQMTQSPSTLSASVGDRVTITCRASQSISSWLAWYQQKPGKAPNLLIYKASTLESGVPSRFSGSGSGTEFTLTISSLQPDDFATYYCQQYNTYWTFGQGTKVEIK
notes: Human IgG; also called R84-H05; 559A-M0162-A04

Ki (mouse plasma kallikrein [1]): ~1 nM | Ki (human plasma kallikrein [4]): 0.6 nM
B2: M142-H08 (Fab) (Fab, V domains shown)
VH: B3 VH with N105F
VL: B3 VL
notes: Fab; printed HC runs into the start of CH1

Ki (mouse plasma kallikrein [1]): < 1 nM | Ki (human plasma kallikrein [3]): 5.6 nM
B6: M160-G12 (IgG) (antibody, V domains shown)
VH: B7 VH
VL: DIQMTQSPSFLSASVGDRVTITCRASQGISSYLAWYQQKPGKAPKLLIYAASTLQSGVPSRFSGSGSGTEFTLTISSLQPEDFATYYCQQLNSYPLTFGGGTKVEIK
notes: Human IgG; also called R84-D02

Ki [5]: 0.2 nM | Ki [11]: 0.1 nM | Ki (mouse plasma kallikrein [12]): 0.011 nM | Ki (mouse plasma kallikrein [6]): 0.011 nM | Ki (rat plasma kallikrein [13]): 0.14 nM
B9: X81-B01 (antibody, V domains shown)
VH: B7 VH
VL: B7 VL with D1E, Q3V, M4L, T40K, T66S, Y68S, Y84F, G85A, T86V, R104K
notes: also called X81-B01 (IgG); 559A-X81-B01

Reference: patent US9266964
